The results in this text go back to patent US7662584, “Increased production of secreted proteins by recombinant eukaryotic cells” (Danisco US Inc.).

What all share (conditions): tags: N-terminal MBP (malE), pMAL-p2X, E. coli; label: 32P-dCTP Klenow fill-in
In series [1] the target is T1, HAC1-malE fusion (HAC1 DNA binding domain and leucine zipper fragment) (Trichoderma reesei, UniProt Q8TFF3 SEQ:84-203).
T1 chain: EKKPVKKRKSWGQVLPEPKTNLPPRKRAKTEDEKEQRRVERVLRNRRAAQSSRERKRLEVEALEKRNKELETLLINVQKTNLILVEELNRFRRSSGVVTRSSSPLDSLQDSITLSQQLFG
Briefly: EMSA; specific binding; 10 mM MgCl2, 50 mM KCl, pH 6.9, poly(dIdC), 25 C. On the procedure:
(§1) FIG. 16 depicts bandshift experiments, where the binding of the malE-HAC1 fusion protein to the putative UPR element sequences found in *T. reesei* pdi1 and bip1 promoters was tested. The oligonucleotides used in the binding reactions are shown on the top. Lanes 1, 12 and 16, no protein; lanes 2, 4-7, 8-11. 13-15 and 17-19. malE-HAC1 fusion protein; lane 3. malE protein alone. The binding was competed with unlabelled oligonucleotides on lanes 5 (20× excess); lanes 6, 10, 14 and 18 (50× excess) and lanes 7, 11, 15, and 19 (200× excess). Alignment of the UPR element sequences that bind the HAC1-malE protein is shown below wherein the sequence of pdiUPREII is set forth in SEQ ID No: 61, the sequence of bipUPREI is set forth in SEQ ID No. 62, and the sequence of bipUPREII is set forth in SEQ ID No. 63.
The oligonucleotides used in binding reactions were annealed in the concentration of […] in 50 mM Tris, pH 8.0, 10 mM MgCl_2, 1 mM spermidine and 5 mM DTT by heating them at 65° C. for 10 minutes and letting them cool down to room temperature during 2 hours. The oligonucleotides were labelled by incubating 100 ng of the annealed oligonucleotide in 10 mM Tris, pH 8.0, 5 mM MgCl_2 with 20 μCi of ^32P-dCTP and 2.5 U Klenow polymerase (Boehringer Mannheim) at 37° C. for 30 minutes. The binding reactions between the oligonucleotides having the putative UPR elements and the proteins were carried out with 0.5-2 μg of the HAC1-malE fusion protein or 2 μg of the malE protein and 1 ng of the annealed and labelled oligonucleotide in a mixture containing 20 mM HEPES, pH 6.9, 50 mM KCl, 10 mM MgCl_2, 0.25 mM EDTA, 0.5 mM DTT, 2% Ficoll, 5% glycerol and 100 μg/ml poly(dIdC) DNA. The competing oligonucleotides were used in 20-200 times excess of the labelled oligonucleotide. The binding eaction mixtures were incubated for 30 minutes at 25° C. and run in a 5% polyacrylamide gel with 10% glycerol in 12.5 mM Tris-borate, pH 8.3, 0.6 mM EDTA for three hours. The gel was dried on a filter paper and exposed onto an X-ray film.
Background: A gel shift assay detects complexes by their altered migration in electrophoresis.

The target in series [2] is T1, HAC1-malE fusion (HAC1 DNA binding …). Briefly: EMSA; competed by excess unlabelled oligo; 10 mM MgCl2, 50 mM KCl, pH 6.9, poly(dIdC), 25 C. On the procedure:
as §1
(§2) The oligonucleotides used in binding reactions were annealed in the concentration of […] in 50 mM Tris, pH 8.0, 10 mM MgCl_2, 1 mM spermidine and 5 mM DTT by heating them at 65° C. for 10 minutes and letting them cool down to room temperature during 2 hours. The oligonucleotides were labelled by incubating 100 ng of the annealed oligonucleotide in 10 mM Tris, pH 8.0, 5 mM MgCl_2 with 20 μCi of ^32P-dCTP and 2.5 U Klenow polymerase (Boehringer Mannheim) at 37° C. for 30 minutes. […]

For series [3] the target is unchanged. Description: EMSA; no binding at all; 10 mM MgCl2, 50 mM KCl, pH 6.9, poly(dIdC), 25 C. On the procedure: as §1, §2

B1: pdiUPREII (dsDNA)
DNA 1: GGATCTTGCATAGCCAGATGTGGCCTCGATTGACT
DNA 2: AGTCAATCGAGGCCACATCTGGCTATGCAAGATCC
In the case of B1, the binding result in series [1] is recorded as “binds”.

B2: pdiUPREI+II (dsDNA)
DNA 1: CGGCTGAACCAGCGCGGCAGCCAGATGTGGCCAAAGGG
DNA 2: CCCTTTGGCCACATCTGGCTGCCGCGCTGGTTCAGCCG
For the molecule B2, the binding result in series [2] is “binds”.

B3: bipUPREII (dsDNA)
DNA 1: GGGCGTGGAGAAGCGAGAAGTGGCCTCTTCTTCTCC
DNA 2: GGAGAAGAAGAGGCCACTTCTCGCTTCTCCACGCCC
With B3, the binding result in series [1] was “binds”.

B4: bipUPREI (dsDNA)
DNA 1: GGATTAGAAAACGCCAACGTGTCCATAACGGTC
DNA 2: GACCGTTATGGACACGTTGGCGTTTTCTAATCC
Regarding B4, the binding result in series [1] is “binds”.

B5: pdiUPREI (dsDNA)
DNA 1: GGTACCTGCTAACCAGCGCGGCATGATTCAAC
DNA 2: GTTGAATCATGCCGCGCTGGTTAGCAGGTACC
On to B5, for which the binding result in series [3] is on record as “no binding”.
